The data set concerns Saccharomyces cerevisiae. The experiment in a line: transcriptional activation domain activity (GFP:mCherry ratio, weighted mean of sorted bins, harmonized to initial dataset scale) (arbitrary fluorescence ratio units); higher = stronger transcriptional activation. As to conditions: beta-estradiol 1 µM; induction time 4 h. The procedure:
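53-aa protein tiles (fungal proteins plus yeast TF control tiles) fused C-terminally to a DBD-estrogen-binding domain-mCherry synthetic TF, integrated in S. cerevisiae (URA3 locus) with a GFP reporter. Cells were induced with 1 uM beta-estradiol for 4 h at 30 C, FACS-sorted into 8 bins by GFP:mCherry ratio and barcodes sequenced. Activity is the read-weighted mean bin fluorescence (GFP:mCherry), averaged over barcodes (median 12); tiles under 50 reads were discarded. New active-learning values were harmonized by linear fit onto the scale of the initial (Hummel et al.) dataset. The assay saturates at low and high signal.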

With “MLCMTMTTCMQWLAQFMIVYSLPYMVVSIKSFTFIFFAVCTTFSFIFTLLFVP”, the “transcriptional activation domain activity” value is 41900. On to “ILLYHPNFLLIAISILYIIWCFMVLIMFCVVLPTAFLLLRAALFYPPHGREFI”, for which the “transcriptional activation domain activity” value was 25900. For “GFSRTAGAKSMPASRRTSASGDDDELAGHLQGLSLAGERSNRVSPAPAPVSAS”, the “transcriptional activation domain activity” value was 44900.

As to “YTSLIILVTWLSIVFSKFVLHRRTFGLVFVHLHFFFLFALFSFFFSYCVCIRI”, the “transcriptional activation domain activity” value turned out to be 60600. In the case of “MSSVAAAESKPEKKQKKDKSSKSEKKRLREDDAADAERKHKKSKSLASSEVAA”, the “transcriptional activation domain activity” value was 15100. The result for “MLLLLIIRKVLILGKPFFINHLHILLYPDTVLSPFLLLSFPLTLPLSLLLLLL” reads 106000.

Regarding “GGERREREEGTERREKEEAGRRRRESGRGQEGKKRGEGGGGRKKRGRDGGGPG”, the “transcriptional activation domain activity” value was 38500. The result for “MEGRVGGDQKGGGFIFVYGSGVLDWGVFFRFIYISLSFFVWGLFLCVSFAFVL” reads 41200; that for “MSSSDPLRKRDFEDSTRRLACDRCRGQKLRCERITGKTTSPCRRCVKARARCT”, 35300. The result for “ERPFFALVVCGEYAHLSPETRVKVAQLLLRCLPAPNLSLLVYLLSFLSHFQHA” reads 62200; that for “GVDERRAIVESFVKRVTHKYLRHCDPSEPVLLLSSLVIKLIFARFWLLVYRPQ”, 44900; that for “FLLSTSFYFVFILFLFHFYIVLFLLPPPSLSFPLSLPYLSAFIVLTPTQLWPA”, 77600. Under “RVRAAERAGQQAGREGRRGRQRGEHARRGGRAAHERAAQAHHRAPVPVPVRVP” stands 62200; under “IWCRKCNLGSILYVLARYGTLNCLLVSSLSLVTGFVVNMIFHIILGLLLARAY”, 65100. For “PSHRSVTPFLGQQQQLQSLVPLTPSALFGGANFNQSGNIADSSLSFTFTNSSN”, the “transcriptional activation domain activity” value worked out at 49800. “HRQTTLSVALPCGELHIAYLVAGLLFHGATCDDIVVIMLCARILFSVCKIYYH”: the “transcriptional activation domain activity” value amounted to 77100.

Regarding “QEKEGGAKEAQPDADADAEAEGKAARQKARKAVVSAASDDEGDDEEEEEEEEG”, the “transcriptional activation domain activity” value was determined as 10000. The result for “ACAVLLSVVDGLTPLSIICASCSTTGAYWFCCFSMRFFVFIDLLGTLLLYLII” reads 74900; that for “APVAEPVPVASTSSEVKKDEEEADEDEEDDNVASIEAKIAAARSRLSATHCLF”, 10900; that for “QGFMNVTFTNGRKYEALSKQLIFIVHAIFMAANDHVGYILLRALRVYMELDVY”, 69900. The result for “CRLYRLGFFVFLLVLSGLSFLSFYQVYRLFYFLLLFLFFSLFVFFSFCLILYF” reads 57400. Regarding “VKRVAFGCLSTILALYLVHKYTYEHPFILSDNRHYSFYVWKKIYRRHWMVRYC”, the “transcriptional activation domain activity” value was determined as 61000. As for “GPWFLGAFIPSIPQYGLFYPYGIYFPDTKEWIPILDTFYIALWEHTFFIFPLL”, the “transcriptional activation domain activity” value amounted to 51600. The result for “AEYDVVLLKRLLYELNGRRNRLMVLPSRLALWEIVMPWVIDLVCRVRFNVTYT” reads 64600; that for “AASWILLGFFIKQLYEEFGWAIFHVVGANPKMKTMYQWYQIMICLLKFDFFFF”, 48500. The result for “TNPAFANSSLPPIHSSFSTLSNPPSIFCVLPPFLPSFPLSFPFFFSFPFFLFL” reads 52500; that for “KVISLLYSNRESSYLEDTCPTENDYSDLLKGYINEIEKTLPPKAIIEQYLSHF”, 51100. The result for “VPGEVSEAEANGETKAEDAPAAEGDAAKPKKKKKKAAKKAKSANGEATEGAPA” reads less than 6570.

On to “VAAAAAETERAAEAERVAEAGRREEAEGTTDTGKTETGRREEADGTAGAAKAA”, for which the “transcriptional activation domain activity” value was found to be 24800.

On to “KIHLVNLSQVVVFFIHRILFGIIPLFEIETCAYFPLLISLWHLTYLLFYVVMF”, for which the “transcriptional activation domain activity” value was found to be 80700. As for “KGGSEKSGNAGKKEDAGKKEAEKKKVEAGKNQGKGKQNTGSGGNKKAAKKGKK”, the “transcriptional activation domain activity” value was 18400. As for “YVGKYPESIDTFSIVPRTPTSRLIRSYLKTILANPESRKIFYFLMLNLAYMLV”, the “transcriptional activation domain activity” value was 58300.

Turning to “SVVKFIEEYQAYFNTSYEVFLLLYISFILVTTLWCTSLIIYRILTVHLIEVLV”, the “transcriptional activation domain activity” value was determined as 29800.

Consider “KEEAESEAEASAPKGKKGTVKKPAAAAKAKDVDEPKAKRGRPKKTVAKDEVEN”, for which the “transcriptional activation domain activity” value was less than 6570. The result for “SEPEEEDSSSKKRKRKADDEGKKKAKKGKKAAGSDDEDEDANSVHISVTQAVS” reads 36600; that for “LLWGLALVCAFAFGRRRRRWWWWWWWWWLLLLLLLFIFFFWICLSLRFLLWTR”, 54100. Under “RKPEPAGEKAEGAQSGGEGQNGEGRRRGGGRGRGRARGRGGRGGRGGRGQRNA” stands less than 6570.

As to “CVCVGVGIGVGGLVLPLLFFLSFTSFSSLVTFLFSLSFPFSFFLFFLSFFLGL”, the “transcriptional activation domain activity” value came to 46000.

On to “MHIVVTLCYFMTYLKPRRKDIYQRVQRWLPKIWTKFWQEIKRNDSFSYVFVDK”, for which the “transcriptional activation domain activity” value amounted to 49500. The result for “VNHIVAYITLGIVGFCFLSYITLTLMPLIFHDCPYYTPFTSLLWYSAQIIPFF” reads 33600.

Regarding “LKDEVMKIKPVQKQTRAGQRTRFKAVVIVGDSNGHVGLGIKTAKEVATAIRAA”, the “transcriptional activation domain activity” value was found to be 81600. The result for “YFLLSILFFFFSNNFTFTLLYLLHASYHIQSLYRHILVSVFCNYPSLLLFFFL” reads 53000; that for “YFVLLPPTFILLAFPLLVWEFCWLSSSDFLCLLSMGFLFISLSFFFFFFLGNW”, 40400; that for “MIWREFFLFFLFFFFLFGIYGLRVAGLDYFVYGDLFVIINISYLFFWWVYAIY”, 45900. The result for “ARFNLYLLSWLHVLSAKSASLGSSKAWWIRPAEIAMMSCYWYIFGYLLLWCTL” reads 65800.

In the case of “RVLVILRMWAFCYRGNGRTKYAHEMLHLLHNLICVWTKELRHIVLQNWLANPQ”, the “transcriptional activation domain activity” value came to 61100. Under “KTIFFCGGRFLTSRALWAFCLSMFLFVMPSVLFLIFTCPWLWHHISPAVPIIF” stands 41300; under “SSSKSKPIPDAKKRKSSASKPKSASSADRDTKRSGSRPESGKKSSTSSRSSKS”, 22900. The result for “SCFIFLGHHFDVFVSFLLKIGLGDEMLGVLWFFFSCVLLVGAFLLRLLGFYHT” reads 67900. The result for “HSLISWLLKSLENGAGAIVIRKLCSALVTHFVRFSHLWPLCVRSLLYCLHANR” reads 71400.

Turning to “MIYACGLICFYFFFFFLYFFPFCISFHIFLFSFLYPSCSFSFLQHCQVGTGVC”, the “transcriptional activation domain activity” value was 48900. The result for “RKDRKDRTRKERRDRHDDGRRHRHRRSSRSRSRDRRDRKHDRSRSRDRRKDGD” reads 9360.

In the case of “PYIVYPLKPCLSGPLCELYPSVMNLWAMCLHLILLCIQIPFLLSIPFWLLFPL”, the “transcriptional activation domain activity” value was 86900. The result for “YFLGIFMYFLYGESVIYYFKHVLLVDRILLPLATHHRFISFMLYLIGFVFFVG” reads 65800; that for “SIMHALRQFCTEMRATQFQDCRLRTVQLLLRLLPSANLSLFVYLLAFLSQIVQ”, 36200. Under “LFHSYFSFLLLFFFFFFFYFLPFFFFLPSLLPHFLLFSFYFPFISPFLSTSFS” stands 58800. Under “DADSAQVAGECVVCQDEEANVVIVECGYVSLIIHLTLHRFIVLASLVISHYAQ” stands 63900; under “SASKPAAVTDADEAARPVKKPARPSPGDEDKPEKKEESSRKIETQQPKKAAAQ”, 25500; under “EDEETARPKRKSPSAVLKSHTARVSRAVFGRDAKGASAYSCGFDSTVRTWDVE”, 49700. For “MNGGNGFGFWFGVWFWLGIYILSLFFFFFSFSFLLLCVFVSFHSLVFFFFFFS”, the “transcriptional activation domain activity” value was 53300. As to “VLPVRFPKDCDQVFIACAVDCAELWRPGWKANIWVISHRRMIVSTVHIRHLSR”, the “transcriptional activation domain activity” value worked out at 48200. Turning to “IYTNRFVSGDDGSNSKTKNLDSNMFSNDFNFENQFDEQVSEFCSKMNQVCGTR”, the “transcriptional activation domain activity” value came to 74400.

For “AVMFGQVCVILVAFCFTNQITFVGIRHGLWRSRINTIRLYIFLLRCWQILCGL”, the “transcriptional activation domain activity” value amounted to 60900. The result for “VWEMCLVVGMGSELDVLYRVNNTVFVGCFCLARLTIVLLFAMSMLYLPMFRRD” reads 61200; that for “PANSSFVYVPMGWTLEVRNDGNPAIYAALLVRALLSRRVCRVGLLKHNTILVH”, 51300; that for “KLEHEPGPEPKPEAEEKPKKARGRPKKAIPEGGYTPKKARGRPKKVLDPEAEV”, 14000.

In the case of “KIHLLPTGVHQWNLKVKDLIHCLKLFHYAEIMYALSIVPLKAAIIFQCLRVFV”, the “transcriptional activation domain activity” value stood at 47200. Under “IKLMTLLYVFCRCSAVANVIYTVAITSSLDTLRVTYRISSVISLLCRTSVMMV” stands 43300. Under “LFEIDQRLGLLVPRNGINTSLVILKVIAKLLEKASIYNHFTLGIVWLRKSILV” stands 49900. Take “MITTLYHHVRYILIRQPRRPVSLLDQPAVLNYLYVLLYHTIVTFNILTPAVYW”: the “transcriptional activation domain activity” value came out at 49600. For “SDDDEPPAKAAPKPKPRPVGKAKAKAREPEPESDGEVSAVQKKKKRKIGIFQS”, the “transcriptional activation domain activity” value turned out to be 37600.

These data come from the supplement of paper PMC12636428.
